In US20210277068A1 (SHANXI KANGBAO BIOLOGICAL PRODUCT, published 2021):
Ends that are not written are not given here. * marks the point of attachment. Stearoyl = CCCCCCCCCCCCCCCCCC(=O)*; Palmitoyl = CCCCCCCCCCCCCCCC(=O)*

Assays:
N39 [1] = target: T1, N39 (HIV-1, N-terminal acetyl (Ac-); C-terminal amide (-NH2)); assay: circular dichroism temperature scan at 220 nm of the 1:1 mixture with N39, 10 µM each in PBS pH 7.2
T1 peptide: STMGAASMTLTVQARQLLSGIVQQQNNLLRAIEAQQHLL

N39 [2] = target: T1, N39; assay: circular dichroism temperature scan at 220 nm of the 1:1 mixture with N39, 10 µM each in PBS pH 7.2; difference against LP-52
[3] = target: gp41 of the envelope protein (Env) of HIV-1 strain HXB2 (HIV-1 strain HXB2, UniProt P04578 33-856); assay: cell-based or functional assay
[4] = target: gp41 of the envelope protein (Env) of the D36G mutant of HIV-1 strain NL4-3 (HIV-1 strain NL4-3); assay: cell-based or functional assay
[5] = target: gp41 of the envelope protein of HIV-1 strain JRCSF (HIV-1 strain JRCSF); assay: cell-based or functional assay
N39 [6] = target: T1, N39; assay: circular dichroism of the 1:1 mixture with N39, 10 µM each in PBS pH 7.2

B1: LP-69 (peptide)
peptide: Ac-IEELLKKAEEQQKKNEEELKK(Palmitoyl)-NH2
SMILES: CCCCCCCCCCCCCCCC(=O)NCCCC[C@H](NC(=O)[C@H](CCCCN)NC(=O)[C@H](CC(C)C)NC(=O)[C@H](CCC(=O)O)NC(=O)[C@H](CCC(=O)O)NC(=O)[C@H](CCC(=O)O)NC(=O)[C@H](CC(N)=O)NC(=O)[C@H](CCCCN)NC(=O)[C@H](CCCCN)NC(=O)[C@H](CCC(N)=O)NC(=O)[C@H](CCC(N)=O)NC(=O)[C@H](CCC(=O)O)NC(=O)[C@H](CCC(=O)O)NC(=O)[C@H](C)NC(=O)[C@H](CCCCN)NC(=O)[C@H](CCCCN)NC(=O)[C@H](CC(C)C)NC(=O)[C@H](CC(C)C)NC(=O)[C@H](CCC(=O)O)NC(=O)[C@H](CCC(=O)O)NC(=O)[C@@H](NC(C)=O)[C@@H](C)CC)C(N)=O
notes: Residues 1-21 follow from the statement that LP-69 is LP-65 (24 residues) without its C-terminal LEK
Which “Tm value of the complex” value (N39 [1]) does the source give for B1 here?
The value was 51 °C.

And the “Tm value lower than that of the LP-52 by” value (N39 [2])?
The value was 28.1 °C.

B2: LP-50 (peptide)
peptide: Ac-YTSLIEELIKKSEEQQKKNEEELKKLEK(Palmitoyl)-NH2
SMILES: CCCCCCCCCCCCCCCC(=O)NCCCC[C@H](NC(=O)[C@H](CCC(=O)O)NC(=O)[C@H](CC(C)C)NC(=O)[C@H](CCCCN)NC(=O)[C@H](CCCCN)NC(=O)[C@H](CC(C)C)NC(=O)[C@H](CCC(=O)O)NC(=O)[C@H](CCC(=O)O)NC(=O)[C@H](CCC(=O)O)NC(=O)[C@H](CC(N)=O)NC(=O)[C@H](CCCCN)NC(=O)[C@H](CCCCN)NC(=O)[C@H](CCC(N)=O)NC(=O)[C@H](CCC(N)=O)NC(=O)[C@H](CCC(=O)O)NC(=O)[C@H](CCC(=O)O)NC(=O)[C@H](CO)NC(=O)[C@H](CCCCN)NC(=O)[C@H](CCCCN)NC(=O)[C@@H](NC(=O)[C@H](CC(C)C)NC(=O)[C@H](CCC(=O)O)NC(=O)[C@H](CCC(=O)O)NC(=O)[C@@H](NC(=O)[C@H](CC(C)C)NC(=O)[C@H](CO)NC(=O)[C@@H](NC(=O)[C@H](Cc1ccc(O)cc1)NC(C)=O)[C@@H](C)O)[C@@H](C)CC)[C@@H](C)CC)C(N)=O
notes: LP-40 with EE**KK ion pairs introduced; also called P50 with C16
For B2, which “IC50 for inhibiting cell fusion (HXB2-cell fusion)” value [3] is on record?
Its value is 21 pM.

And the “IC50 for inhibiting pseudovirus (entry of NL4-3)” value [4]?
The value was 7 pM.

And the “IC50 for inhibiting replicative virus (replication of JRCSF)” value [5]?
The value was 23 pM.

And the “Tm value of the complex” value (N39 [1])?
Its value is 63.3 °C.

Which results are given for Ac-WEQKIEELLKKAEEQQKKNEEELKKLEK(Stearoyl)-NH2 [LP-80]?
IC50 for inhibiting HIV-1 strain NL4-3 [4]: 2 pM; IC50 for inhibiting HIV-1 strain JRCSF [5]: 2 pM; Tm value of the complex (N39 [1]): 79 °C

Ac-YTSLIHSLIEESQNQQEKNEQELLELDK (not fully specified (residue 28, C-terminus), also called T-20-based lipopeptide) [LP-40] was tested. Which “helix content of the complex” value (N39 [6]) did it give?
The value was 57.7%.

What about the “Tm value of the complex” value (N39 [1]) of the same binder?
Its value is 51.3 °C.
